This note sets out measurements from patent US20160010082A1.

The target of this assay is YPet-Mona. Kind of assay: flow cytometry of E. coli displaying the construct, 50 nM YPet-Mona; 30 minutes of expression; reference CPX display. On the technique in general: In flow cytometry, cells or beads pass a laser one at a time.
Sequence of YPet-Mona (O89100 263-322): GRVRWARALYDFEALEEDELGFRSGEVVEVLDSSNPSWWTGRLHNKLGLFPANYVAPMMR

B1: eCPX displaying the P2 peptide at the C-terminus (protein)
chain: GQSGQGGQSGQSGDYNKNQYYGITAGPAYRINDWASIYGVVGVGYGKFQTTEYPTYKHDTSDYGFSYGAGLQFNPMENVALDFSYEQSRIRSVDVGTWILSVGYRFGSKSRRATSTVTGGYAQSDAQGQMNKMGGFNLKYRYEEDNSPLGVIGSFTYTEKSRTASGGQSGQPAPSIDRSTKPPL
As to B1, the fold improved display level compared to CPX came to 9 fold.
